According to patent publication US20190177366A1 (published 2019):
Ends that are not written are not given here.

B1: SEQ ID NO 325 (peptide)
chain: TAFTSWEEYLDWVGSGKNNYAYLINMPRAPGI
notes: phage clone
B2: SEQ ID NO 309 (peptide)
chain: TAFTSWEEYLDWVGSGGPWNLNRV
notes: phage clone
B3: SEQ ID NO 348 (peptide)
chain: TAFTSWEEYLDWVGSGVCSDHYIGGKEVRC
notes: phage clone
B4: SEQ ID NO 327 (peptide)
chain: TAFTSWEEYLDWVGSGACLNHFVSGNMIRC
notes: phage clone
B5: SEQ ID NO 340 (peptide)
chain: TAFTSWEEYLDWVGSGPRTYLRGLVD
notes: phage clone
B6: SEQ ID NO 323 (peptide)
chain: TAFTSWEEYLDWVGSGGCVKYRGSVSCQESKT
notes: phage clone
B7: SEQ ID NO 349 (peptide)
chain: TAFTSWEEYLDWVGSGCCSYGYEKCCNG
B8: SEQ ID NO 336 (peptide)
chain: TAFTSWEEYLDWVGSGSYRGAWSVFGGSTD
notes: phage clone
B9: SEQ ID NO 338 (peptide)
chain: TAFTSWEEYLDWVGSGQCYPWCRL
notes: phage clone
B10: SEQ ID NO 326 (peptide)
chain: TAFTSWEEYLDWVGSGRGGYELNIPR
notes: phage clone
B11: SEQ ID NO 345 (peptide)
chain: TAFTSWEEYLDWVGSGGDCGYHYMCSMT
modifications: not fully specified (bridges); cysteine pairing not given here
notes: phage clone
B12: SEQ ID NO 332 (peptide)
chain: TAFTSWEEYLDWVGSGPHSYWLDRVQ
notes: phage clone
B13: SEQ ID NO 320 (peptide)
chain: TAFTSWEEYLDWVGSGGEYLWNLKRLES
notes: phage clone
B14: SEQ ID NO 319 (peptide)
chain: TAFTSWEEYLDWVGSGALWNMRRVESVAFR
notes: phage clone
B15: SEQ ID NO 312 (peptide)
chain: TAFTSWEEYLDWVGSGKLWNLTRISS
notes: phage clone
B16: SEQ ID NO 308 (peptide)
chain: TAFTSWEEYLDWVGSGVLWNHSRI
notes: phage clone
B17: SEQ ID NO 341 (peptide)
chain: TAFTSWEEYLDWVGSGQTTYLRVSSS
notes: phage clone
B18: SEQ ID NO 318 (peptide)
chain: TAFTSWEEYLDWVGSGMPWNLARIER
notes: phage clone
B19: SEQ ID NO 329 (peptide)
chain: TAFTSWEEYLDWVGSGNVRCYRDVPSCS
modifications: not fully specified (bridges); cysteine pairing not given here
notes: phage clone
B20: SEQ ID NO 339 (peptide)
chain: TAFTSWEEYLDWVGSGCWTYLRGGCSVT
modifications: not fully specified (bridges); cysteine pairing not given here
notes: phage clone
B21: SEQ ID NO 331 (peptide)
chain: TAFTSWEEYLDWVGSGNPTYWLTRIS
notes: phage clone
B22: SEQ ID NO 330 (peptide)
chain: TAFTSWEEYLDWVGSGEDVVCYGRVDYMPLCV
notes: phage clone
B23: SEQ ID NO 344 (peptide)
chain: TAFTSWEEYLDWVGSGGREMRSVIQM
notes: phage clone
B24: SEQ ID NO 321 (peptide)
chain: TAFTSWEEYLDWVGSGTRYADRGVMVYSLS
notes: phage clone
B25: SEQ ID NO 314 (peptide)
chain: TAFTSWEEYLDWVGSGVPWNLARL
notes: phage clone
B26: SEQ ID NO 315 (peptide)
chain: TAFTSWEEYLDWVGSGVPWNLAKI
notes: phage clone
B27: SEQ ID NO 324 (peptide)
chain: TAFTSWEEYLDWVGSGEHQFYSYRGVDVYR
notes: phage clone
B28: SEQ ID NO 322 (peptide)
chain: TAFTSWEEYLDWVGSGMVYVDRGVRVFT
notes: phage clone
B29: SEQ ID NO 310 (peptide)
chain: TAFTSWEEYLDWVGSGPLLWNLQKVH
notes: phage clone
B30: SEQ ID NO 307 (peptide)
chain: TAFTSWEEYLDWVGSGNCWSSLRGICENLG
notes: phage clone
B31: SEQ ID NO 334 (peptide)
chain: TAFTSWEEYLDWVGSGCVKVGLSWIGDCNS
notes: phage clone
B32: SEQ ID NO 316 (peptide)
chain: TAFTSWEEYLDWVGSGGHPLWNLSRI
notes: phage clone
B33: SEQ ID NO 306 (peptide)
chain: TAFTSWEEYLDWVGSGKLWNLGRV
notes: phage clone
B34: SEQ ID NO 328 (peptide)
chain: TAFTSWEEYLDWVGSGCPFYDWRCSDFS
modifications: not fully specified (bridges); cysteine pairing not given here
notes: phage clone
B35: SEQ ID NO 317 (peptide)
chain: TAFTSWEEYLDWVGSGNELWNINRLRSS
notes: phage clone
B36: SEQ ID NO 337 (peptide)
chain: TAFTSWEEYLDWVGSGCMEAWQCSLA
notes: phage clone
B37: SEQ ID NO 346 (peptide)
chain: TAFTSWEEYLDWVGSGQELPNHRRLS
notes: phage clone
B38: SEQ ID NO 350 (peptide)
chain: TAFTSWEEYLDWVGSGSETGLGTYYG
notes: phage clone
B39: SEQ ID NO 347 (peptide)
chain: TAFTSWEEYLDWVGSGNMCYLRGKMDCNIV
notes: phage clone
B40: SEQ ID NO 343 (peptide)
chain: TAFTSWEEYLDWVGSGRGEVYDKGGVIVHL
notes: phage clone
B41: SEQ ID NO 311 (peptide)
chain: TAFTSWEEYLDWVGSGSCSWNVERIRGCSV
notes: phage clone
B42: SEQ ID NO 313 (peptide)
chain: TAFTSWEEYLDWVGSGVVLWNHSRIL
notes: phage clone

Target: T1, proprotein convertase subtilisin/kexin type 9 (PCSK9) (human, UniProt Q8NBP7 31-152)
T1 construct: domain: prodomain; Recombinant; tag not written as a part; also called rec.PCSK9; His-PCSK9
Assay: phage spot ELISA

T1 sequence (Q8NBP7 31-152 limits assumed, chain 1 of 2): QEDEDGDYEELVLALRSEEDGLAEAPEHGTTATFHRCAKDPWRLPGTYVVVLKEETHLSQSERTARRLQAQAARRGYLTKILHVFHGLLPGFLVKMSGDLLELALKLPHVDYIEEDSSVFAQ
T1 sequence (Q8NBP7 153-692 limits assumed, chain 2 of 2): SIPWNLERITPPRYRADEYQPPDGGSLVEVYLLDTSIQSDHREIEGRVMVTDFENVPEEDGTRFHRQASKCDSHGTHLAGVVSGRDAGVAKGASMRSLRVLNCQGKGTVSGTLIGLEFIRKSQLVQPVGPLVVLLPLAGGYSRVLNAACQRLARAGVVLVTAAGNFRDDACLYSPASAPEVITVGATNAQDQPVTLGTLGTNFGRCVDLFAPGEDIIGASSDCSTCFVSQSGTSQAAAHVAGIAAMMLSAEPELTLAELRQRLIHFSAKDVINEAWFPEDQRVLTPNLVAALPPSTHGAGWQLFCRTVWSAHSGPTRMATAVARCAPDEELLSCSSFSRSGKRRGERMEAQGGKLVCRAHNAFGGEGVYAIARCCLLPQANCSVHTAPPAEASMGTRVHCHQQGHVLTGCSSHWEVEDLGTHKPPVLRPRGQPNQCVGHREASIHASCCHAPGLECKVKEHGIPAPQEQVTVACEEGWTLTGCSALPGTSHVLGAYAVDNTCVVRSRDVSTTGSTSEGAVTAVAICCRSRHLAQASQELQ

Row | Binder | binding result
1 | B1 | binds
2 | B2 | binds
3 | B3 | binds
4 | B4 | binds
5 | B5 | binds
6 | B6 | binds
7 | B7 | binds
8 | B8 | binds
9 | B9 | binds
10 | B10 | binds
11 | B11 | binds
12 | B12 | binds
13 | B13 | binds
14 | B14 | binds
15 | B15 | binds
16 | B16 | binds
17 | B17 | binds
18 | B18 | binds
19 | B19 | binds
20 | B20 | binds
21 | B21 | binds

Row | Binder | binding result
22 | B22 | binds
23 | B23 | binds
24 | B24 | binds
25 | B25 | binds
26 | B26 | binds
27 | B27 | binds
28 | B28 | binds
29 | B29 | binds
30 | B30 | binds
31 | B31 | binds
32 | B32 | binds
33 | B33 | binds
34 | B34 | binds
35 | B35 | binds
36 | B36 | binds
37 | B37 | binds
38 | B38 | binds
39 | B39 | binds
40 | B40 | binds
41 | B41 | binds
42 | B42 | binds
